# Test results reported in the DeepSol protein solubility set.
# Assay: soluble on expression in E. coli; label from the status in PepcDB or PDB records
row,Sequence,soluble on expression in E. coli
1,MAVIRIKKPRGPGEKDQPLEGEPKLKRIRIKTKVTDEDIKPKPKLKINLKKKKESADGKEKKNSLKLKLNLKKNEEPVKKIHKAPKLRLKPIRIPGEAYDSEASDIEDDPLIESGVILRILPDIQLEFVKNSLESGDYSGISIKWKNERHAVVTINDVMYGAILVDLPTVIEVNKSVDRKNLLKTFDVSQMLLCIRPIQEEEEVYALEAPDTEDLVVKHFEGIEDEIWENKETFLKGYNGAPLSDMEAKHLKEIALKGYDYKHGISPPLYNVRNRRFRRKMDPNEIDYVEKVVDMLLKQDKQAEEVSYDLVDKSELQARQERVSSWENFKEEPGEPLSRPALKKEEIHTIASAVGKQGAEEEGEEGMEEEEEEDLDLGAAFESEEEGSGAEGDKEQQQEEVGDEVDQDTGGEDDDDDDDGDIEAAGGESESDDEKDENRQHTELLADELNELETTLAHTKHKLSKATNPLLKSRFIDSIKKLEKEAELKRKQLQQTEDSVQKQHQHRSDAETANNVEEEEEEEEEEEEEDEVDEDEEDDEENDEDEDNVHEREHIQENKVVRELDEAPAEETLDQNDLDMMMLFGAEGDE,not soluble
2,MAVIYYDKDADLNLIKDKKIAIIGYGSQGHAHALNLKDSGLNVVVGLREGSKSWKKAEEQGLTVKTIEEAAKEADIIMILIPDEHQPEIYKKYIEKHLTEGKMLMFAHGFNIHYHQIIPPKNVDVTMIAPKSPGHIVRREYVEGRGVPALVAVYQDYTGKAKDIALAYAKGIGVTRAGVIETTFKEETETDLFGEQAVLCGGVTALIKAGFETLVDAGYQPEIAYFECLNELKLIVDLIYEGGLSFMRYSVSNTAEYGDYISQEKIVTKEVRENMKQMLKDIQTGKFAKDWILENQAGRPYFYTMRKKESEHLIEKVGKELRKMMPWLKERNVDEE,soluble
3,MAVPQLYYFTIRGFGEYIRLLFLDNGIKFEDIRFDYEGNEWQEFKKGMLLGQLPCLKVDGQEIVQTGAIMRHLGRVHGLNGSNEQEATFLDMFFEGVRDVRMKYVRYIYYDEGTREDCVNKTIPEALVKLEELFKAHSGDFIIGNKISYADYILFEELDVYHVLDANILDKFPTLKSFWERMWKRPNLNAYLEKRKADKVWINAIEKGMN,soluble
4,MAVSLSKGGNVSLTKEAPGLTAVTVGLGWDVRTTTGTDFDLDASAIAVNPTGKVYSDAHFVFFNNKQTPDQTIVHTGDNRTGEGAGDDEAINVNLAGLPADVDKIVFPVSIYDAENRSQNFGQVRNAYIRIVNQAGGAEIARYDLSEDAATETAMVFGELYRNGAEWKFRAVGQGYASGLVGIAQDFGVNV,not soluble
5,MAVTWAVSDGRAGNARQAEALARALHPDTVHALHLQARAPWRWAAPRRLPGANSAFGPAFAAQLQQPPGLVIGCGRQAALATRLLRARGSVAVQILDPRLDRRQWDLVVVPEHDALRGENVLTLLGSLHPVDDAWLAAGRAAFPAVGALPGPRVALLIGGPTTQVPWTLQALAAQCNAVQAQVRAAGGSLLITASRRTPPEVVALLRTLQQGNPGLLWCDARDGANPYAGLLGWADAIVASADSVNLLSEACATPVPVVAACAEFARGRVGAYVQALQQRQRLCAADEVLATTAAMTPVRETERIAAQVRMRLGLLEHHHHHH,soluble
6,MAVVMNWNNFSTNWDLKLLSLILAVIVWGGVSGGRTAELELTVPLELRNLPPGFSVASAVPTEASVTVAGPKILLLKLRSERIIIPLDARGVGEGTTLFTGLERRLGLPREATITRLFPATVEVRLIRSKTVQKPLEHHHHHH,not soluble
7,MAVVRRAVAARGLQMIAKPLTVVPGFDVWPGLLDISAQRALVEAVLAGAEQAPFSNYRTAYGKPMSVAMTALGSLGWTSDARGYRYVDRHPETGRPWPDMPPALLDLWTVLGDPETPPDSCLVNLYRDGARMGLHQDRDEADPRFPVLSISLGDTAVFRIGGVNRKDPTRSLRLASGDVCRLLGPARLAFHGVDRILPGSSSLVPGGGRINLTLRRARTALEHHHHHH,not soluble
8,MAYSLTRKLLKDWKYFMRHPEKTQGLFHVRPHDSDLHLWHVVMYEPRTSLEVYLLLYIGGNDQDPYIIMKCLSPNCCFPINRTVSMTHLNYLLLKDLGLQDLLFHIWQPLFHIQATEDLQYSPSTVKFNRAWNRIIYKDFKSYFPELIGTLQPGDYSIVKSYSKNHNISNSNGGSVNEFMSSYNAQSHTFHAQDNSKNPYTNSSIGKSSMLSTLNNNNVNKRTHDYNAIDFMTKNLLACDDDSIHPVVSSKRSRTLACPDETNDNRGSEHYTKRKKI,soluble
9,MAYWLMKSEPDELSIEALARLGEARWDGVRNYQARNFLRAMSVGDEFFFYHSSCPQPGIAGIARITRAAYPDPTALDPESHYHDAKATTDKNPWSAVDVAHVQTFPRVLELGRLKQQAGLVELPLVQKGSRLSVMPVTPEQWAVIVALRLEHHHHHH,soluble
10,MCDISTEDQLLEFARKAAESGDQTQTFEFKKHIGFLIRHLNVFPQPYNTLETSRNTIFLFAISSLDLLGELDNLLTPERRQAYIDWIYGLQFTNGNVCGFRGSHSCENSGYDEANLAQTYSALLSLAILGDDLKKVDRKAILKTVKTAQRDNGCFWSQGVGSESDMRFVFCAVAISHILDGDKEQTIDWTKLAGFLRQSLNIDGGIGQAPGDESHGGSTFCAIASLALSNRLWTEEVLTRRDIDRLIRWAIQKQDIGFHGRAHKPDDSCYAFWIGATLKILNAYHLVSKQHLREFLMICQHPHIGGFCKYPEPGGYSDILHTYFSIAALSLLGEPAVNPVHPSLNVSMRVAERIARLQFD,not soluble
11,MCDSHQKEEDNANTSERALFFNYHEFSYSFYEDLGSEDAKPTEHDEDHKLCITHFPNVYAARGSAEFQVTRVVRVPRRFDESRSSLETPQFSTQLPGSEPAAIVGDDGTSFVRCGRYDIGDHVFGCSSVSPLSEYLSAAELAEVVHRVNGFLLREEGEVFGWRNLSGLLLDMLTGGLWSWVLGPLLSRPVFQESLALEQYVAQLNSPGGLLHERGVRLVLPRRSGCLSLDFVVPRPK,not soluble
12,MCEIFIRANQRSYSVQARSLRLHGVATSVRLEQLFWDVLEEIAARDGMRVTQLIERLYDELVQYRGEAANFTSFLRVCCLRYQVLQAEGRIPADATVPIRSLDAQAVLRGLPANLYDSRPLG,soluble
13,MCENEEYRERFPDKHFDLETVLQAKVRPICVVPERTFIGFFHREKSKEEEEKEDVSLDFLKGVMSFDSIWEEIMKQEPEESASEHVIYIVSWNDHYFVLLVNHDAYYIIDTLGERVYEGCNQAYVLKFDQDAEIKRLPSVIKDNKADMGSQKQGGKNKYEQPERSKESEEQGEEVVVCRGKESCREYIKSFLAAIPIQQVKADMKEGLVSSFHHRLQIELYYTKHLHHRQPNMFESSTTKVTVSEATVSMTVAWLLASQFSNSGGFGCEMAELLGIKV,soluble
14,MCFRTENGDFFGWEGVENTVGCGAGTCTHVWNYAQTVAFLFPELEQSMRRIEFLQETQADGYMPFRTYRPFGLPAWEMLPSADGQLGAVVRLYREWRLSGDNRLIEDCWDGVVRSMEYAIRTWDTDGDFVPDSAQHVTYDTELYGMTSMVSTLFFAALIAAAEMAEYMGDQERARRYRDGAEKGAKLMDEKCWNGEYYIQLIDDVDKYRYQYGKGCLSDQLLGQFLAQEAGLGYVLPKNHVKKAAESIFRYNFIERASDFGHVQRAYIFNDEMGLTPCTWPLGERPRFPFIYFGEVWTGIEYEVAALLIREDLLEEGLTIVKAVRDRQDGYRRNPWSENESGYYYTRAMASYSILNALSGFSCDQRKNQMSFQPKLNQDNFRCFWCNGKSWGIFSQKKEKGEIRQELQVLYGEKDVSVINLEHHHHHH,not soluble
15,MCGIFAYLNFLAPKKRSEIVDILVQGLQRMEYRGYDSAGIAIDGSNDIENPHSKIALLRKRGKVSVLNDYIKENNEKLNMDMEYNIHCGIAHTRWATHGSPRDVNSHPHRSNDNNEFLVVHNGIITNYREIKEYLEKKGHKFESETDTEVIAKLTQHVHDRYPDFSFRQLVETVIQQLEGAFALAFKSSRFPGQLVASRRGSPLLVGIKSNSTLHTSHFPVSYSKGRCFMSNNATHLREETSFVETPNNILDLSIAVRNPSGSAKLPDNNSTTRPFDSTDFEVEYFIASDAAAIIEHTKQVLFLEDDDVAFVEDGSLTIHRISRHADSGEQKREVQLLELEIQEIMKGSYKTFMQKEIFEQPESVVNTMRGRVLPSGQVVLGGLKEYLPAIKRCRRLIMVACGTSYHSAIACRQVLEELSELPVVVELASDFLDRETPIFRNDVCLFISQSGETADTLMALRYCKPRGALTIGVTNTVGSSIGRESHCGIHINAGPEIGVASTKAYTSQIVSLLLFALTISEDRISKMKRRAEIIDALNNLPILIRDVLDLDDQVLKIAEQIYKDKSLLIMGRGLNFATCLEGALKIKELSYMHCEGIMSGELKHGPLAMVDEFLSICMVVCNDHVYKKSLNALQQVVARKGAPIIIADSSVPESDLAGMKHVLRVPRTVDCVQNILTVIPLQLLSYHIAELNGANVDRPRNLAKSVTVE,not soluble
16,MCGIVGFIGEQDAKEILLKGLEKLEYRGYDSAGIAVQAENGVVVYKEKGRIAKLREIVDENVAASVGIGHTRWATHGVPSKVNAHPHQSTSKRFTLVHNGVIENYELVKKEYLQDVTFVSETDTEVIVQLMEQQVSTGLSVEEAFRNTLSLLHGSYAIGLLDAENPNMIYVAKNKSPLLVGVGDNFNVVASDAMAMLQVTDQFIELMDKEIVIVMKESITIKNLQGETIERAPFTAELDASDIEKGTYPHFMLKEIDEQPLVIRNIIQKYQDENGEIELDQDIRNAILDSDRIYIIACGTSYHAGLVGKQFIEKFAKMPVEVHVASEFSYNMPLLTERPFFIYISQSGETADSRAVLVQTNEMGHKALTITNVPGSTLSREADYTLPLYAGPEIAVASTKAYTAQLAVLSILAADIAKAKGEVLGFDLTHELGLVANAMIELCDQKEEMDALAKQFLATTRNCFFIGRSVDFYVGLEGALKLKEISYIQAEGFAGGELKHGTIALIENGTPVIALATQEHVNLGIRGNVKEVVARGANPCIISMKGLEMEGDSFVLPAVHEALAPLVAVIPLQLISYYAALHRECDVDKPRNLAKSVTVE,not soluble
17,MCGRFAQSQTREDYLALLAEDIERDIPYDPEPIGRYNVAPGTKVLLLSERDEHLHLDPVFWGYAPGWWDKPPLINARVETAATSRMFKPLWQHGRAICFADGWFEWKKEGDKKQPFFIYRADGQPIFMAAIGSTPFERGDEAEGFLIVTAAADQGLVDIHDRRPLVLSPEAAREWMRQEISGKEASEIAASGCVPANQFSWHPVSRAVGNVKTRARSLEHHHHHH,not soluble
18,MCGRFTLTLPPDLLAEIIGEIEAARVQPRYNIAPAQEVAVVRQDAGGRRHLDYLRWGLIPPWAKDASVGNHMINARSETVAEKPAFRHAFRSRRCLVLASGFYEWKAEGNRKQPLYIHMKDGGPMVFAGLWESWKSPEGAIVESCTILTTYSNSLIRPLHDRMPVILGRSDWDIWLSREATSEELTPLFQPYPSDLLAMYPVGTGVNSPRNDSPDLLEPLNEPLEHHHHHH,not soluble
19,MCIGVPGQIRAIDGNQAKVDVCGIQRDVDLTLVGSCDENGQPRLGQWVLVHVGFAMSVINEAEARDTLDALQNMFDVEPDVGALLYGEER,not soluble
20,MCMHLSSPALPIGGFSYSQGLEAAIELGLVHDEASTLAWIESQLVTVMARAEAPLWLLFEAWRAGDDAAAHGWNQWFHASRETRELRQETEQMGRSLARLAQELGWGTAATRAAVAALRPATLPAVHACACAMWALPREAGLGAYVFSWLENQVAAAIKGVPLGQMAGQRMLERLRAGLPAVLADARARAGATPPRLDTFAPQYALVSARHETQFSRLFRSAAALEHHHHHH,not soluble
21,MCPCPHSQAQGETDGEAEWHNAALDFTHAMSYGDYLKLDKVLDAQFPLSPDHNEMLFIIQHQTSELWMKLMLHELRAAREHVKSGKLGPALKMLARVSRIFDQLVHAWAVLATMTPTEYNTIRPYLGQSSGFQSYQYREIEFILGNKNATLLKPHAHRAELLAALEQALHTPSLYDEAIRLMAAQGLPVSQERLARDAAAGTCYEASVEAAWRQVYQAPERYWDLYQLAEKLIDLEDSFRQWRFRHVTTVERIIGFKPGTGGTEGVGYLRSMLDTILFPELWRLRSNL,not soluble
